The first assay concerns the target Cy5-labeled Goat anti mouse IgG (AP127S, available from CHEMICON International Inc.) (goat). The experiment in a line: Cy5 fluorescence of antibody at peptide spot on AZO film after 17 h light irradiation, array scanner; reference: water instead of peptide.
For IITAIAAIAAAI [synthetic peptide IIT …], the fixability, fold over Comparative Example 1 was more than 10 fold. As for FAAAIAAIAAAI [synthetic peptide FAA …], the fixability, fold over Comparative Example 1 is more than 10 fold. On to PAAAIAAIAAAI [synthetic peptide PAA …], for which the fixability, fold over Comparative Example 1 is more than 10 fold.

As to IATAIAAIAAAI [synthetic peptide IAT …], the fixability, fold over Comparative Example 1 was more than 10 fold. On the same count and under the same terms, under VATAIAAIAAAI [synthetic peptide VAT …] stands more than 10 fold. On the same count and under the same terms, for AAAAIAAIAAAI [synthetic peptide AAA …] the value was more than 10 fold.

The molecule LAAAIAAIAAAI [synthetic peptide LAA …] came in with a fixability, fold over Comparative Example 1 of more than 10 fold. Molecule IAAAIAAIAAAI [synthetic peptide IAA …] returned a fixability, fold over Comparative Example 1 of more than 10 fold. On the same count and under the same terms, under IGSAIAAIAAAI [synthetic peptide IGS …] stands more than 10 fold.

Molecule AATAIAAIAAAI [synthetic peptide AAT …] came in with a fixability, fold over Comparative Example 1 of more than 10 fold. The same measure, in the same setting: for IPTAIAAIAAAI [synthetic peptide IPT …] the value was more than 10 fold; for ITSAIAAIAAAI [synthetic peptide ITS …], more than 10 fold. Same read-out and setting: under VAAAIAAIAAAI [synthetic peptide VAA …] stands more than 10 fold; under IHTAIAAIAAAI [synthetic peptide IHT …], more than 10 fold. As to IAYAIAAIAAAI [synthetic peptide IAY …], the fixability, fold over Comparative Example 1 was more than 10 fold.

In turn, ITTAIAAIAAAI [synthetic peptide ITT …] came in with a fixability, fold over Comparative Example 1 of more than 10 fold. Same read-out and setting: under ATAAIAAIAAAI [synthetic peptide ATA …] stands more than 10 fold. The same measure, in the same setting: for ISTAIAAIAAAI [synthetic peptide IST …] the value was more than 10 fold; for WATAIAAIAAAI [synthetic peptide WAT …], more than 10 fold. In the case of IQSAIAAIAAAI [synthetic peptide IQS …], the fixability, fold over Comparative Example 1 was more than 10 fold. Still for that read-out and setting: under FATAIAAIAAAI [synthetic peptide FAT …] stands more than 10 fold. IAIAIAAIAAAI [synthetic peptide IAI …] came in with a fixability, fold over Comparative Example 1 of more than 10 fold.

Regarding IVSAIAAIAAAI [synthetic peptide IVS …], the fixability, fold over Comparative Example 1 is more than 10 fold. The same measure, in the same setting: under IAEAIAAIAAAI [synthetic peptide IAE …] stands more than 10 fold; under IASAIAAIAAAI [synthetic peptide IAS …], more than 10 fold; under INSAIAAIAAAI [synthetic peptide INS …], more than 10 fold. Molecule PATAIAAIAAAI [synthetic peptide PAT …] gave a fixability, fold over Comparative Example 1 of more than 10 fold. Same read-out and setting: under ISSAIAAIAAAI [synthetic peptide ISS …] stands more than 10 fold; under IQTAIAAIAAAI [synthetic peptide IQT …], more than 10 fold. Still for that read-out and setting: under IMTAIAAIAAAI [synthetic peptide IMT …] stands more than 10 fold; under QAAAIAAIAAAI [synthetic peptide QAA …], more than 10 fold.

As to LATAIAAIAAAI [synthetic peptide LAT …], the fixability, fold over Comparative Example 1 was more than 10 fold.

For a further assay the target is unchanged. The experiment in a line: Rabbit anti goat IgG fixed on AZO film via synthetic peptides, probed with Cy5-labeled goat IgG, array scanner; reference: antibody directly light-fixed.
In turn, “anti goat IgG rabbit-IgG (A50-100A, available from Bethyl Laboratories, Inc.) (antibody)” gave an immobilized antibody activity, fold over Comparative Example 2 of 3 to 30 fold.

The values above are taken from patent US8697349.
